# Data from the supplement of paper PMC5998384.
# Key:
# HeLa Kyoto [1] = assay: solubility in G1/S (NP-40 vs SDS abundance) (log2 ratio); higher = more soluble; settings: cell cycle stage: G1/S
# HeLa Kyoto [2] = assay: solubility change mitosis vs G1/S (difference of NP-40 vs SDS log2 ratios) (log2 ratio difference); higher = more soluble in mitosis
# 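Wherever solubility change mitosis vs G1/S (difference of NP-40 vs SDS log2 ratios) is given: synchronized HeLa Kyoto cells (double thymidine block for G1/S, nocodazole release for mitosis), protein amounts in NP-40 versus SDS lysates quantified by mass spectrometry, three biological replicates.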
# 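Wherever solubility in G1/S (NP-40 vs SDS abundance) is given: HeLa Kyoto cells arrested at G1/S by double thymidine block, proteins quantified by TMT10plex mass spectrometry in mild NP-40 versus SDS extracts, three biological replicates.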
Substance,solubility in G1/S (log2) (HeLa Kyoto [1]),solubility change mitosis (log2) (HeLa Kyoto [2])
MWCIVLFSLLAWVYAEPTMYGEILSPNYPQAYPSEVEKSWDIEVPEGYGIHLYFTHLDIELSENCAYDSVQIISGDTEEGRLCGQRSSNNPHSPIVEEFQVPYNKLQVIFKSDFSNEERFTGFAAYYVATDINECTDFVDVPCSHFCNNFIGGYFCSCPPEYFLHDDMKNCGVNCSGDVFTALIGEIASPNYPKPYPENSRCEYQIRLEKGFQVVVTLRREDFDVEAADSAGNCLDSLVFVAGDRQFGPYCGHGFPGPLNIETKSNALDIIFQTDLTGQKKGWKLRYHGDPMPCPKEDTPNSVWEPAKAKYVFRDVVQITCLDGFEVVEGRVGATSFYSTCQSNGKWSNSKLKCQPVDCGIPESIENGKVEDPESTLFGSVIRYTCEEPYYYMENGGGGEYHCAGNGSWVNEVLGPELPKCVPVCGVPREPFEEKQRIIGGSDADIKNFPWQVFFDNPWAGGALINEYWVLTAAHVVEGNREPTMYVGSTSVQTSRLAKSKMLTPEHVFIHPGWKLLEVPEGRTNFDNDIALVRLKDPVKMGPTVSPICLPGTSSDYNLMDGDLGLISGWGRTEKRDRAVRLKAARLPVAPLRKCKEVKVEKPTADAEAYVFTPNMICAGGEKGMDSCKGDSGGAFAVQDPNDKTKFYAAGLVSWGPQCGTYGLYTRVKNYVDWIMKTMQENSTPRED [C1S],0.0236,-0.029
MVKLIHTLADHGDDVNCCAFSFSLLATCSLDKTIRLYSLRDFTELPHSPLKFHTYAVHCCCFSPSGHILASCSTDGTTVLWNTENGQMLAVMEQPSGSPVRVCQFSPDSTCLASGAADGTVVLWNAQSYKLYRCGSVKDGSLAACAFSPNGSFFVTGSSCGDLTVWDDKMRCLHSEKAHDLGITCCDFSSQPVSDGEQGLQFFRLASCGQDCQVKIWIVSFTHILGFELKYKSTLSGHCAPVLACAFSHDGQMLVSGSVDKSVIVYDTNTENILHTLTQHTRYVTTCAFAPNTLLLATGSMDKTVNIWQFDLETLCQARRTEHQLKQFTEDWSEEDVSTWLCAQDLKDLVGIFKMNNIDGKELLNLTKESLADDLKIESLGLRSKVLRKIEELRTKVKSLSSGIPDEFICPITRELMKDPVIASDGYSYEKEAMENWISKKKRTSPMTNLVLPSAVLTPNRTLKMAINRWLETHQK [WDSUB1],-0.0154,-0.112
MED13L,0.0923,-0.119
MALKAEGAALDCFEVTLKCEEGEDEEEAMVVAVIPRPEPMLRVTQQEKTPPPRPSPLEAGSDGCEEPKQQVSWEQEFLVGSSPGGSGRALCMVCGAEIRAPSADTARSHILEQHPHTLDLSPSEKSNILEAWSEGVALLQDVRAEQPSPPNSDSGQDAHPDPDANPDAARMPAEIVVLLDSEDNPSLPKRSRPRGLRPLELPAVPATEPGNKKPRGQRWKEPPGEEPVRKKRGRPMTKNLDPDPEPPSPDSPTETFAAPAEVRHFTDGSFPAGFVLQLFSHTQLRGPDSKDSPKDREVAEGGLPRAESPSPAPPPGLRGTLDLQVIRVRMEEPPAVSLLQDWSRHPQGTKRVGAGDTSDWPTVLSESSTTVAGKPEKGNGV [C11ORF84],0.38,0.023
MSGPCGEKPVLEASPTMSLWEFEDSHSRQGTPRPGQELAAEEASALELQMKVDFFRKLGYSSTEIHSVLQKLGVQADTNTVLGELVKHGTATERERQTSPDPCPQLPLVPRGGGTPKAPNLEPPLPEEEKEGSDLRPVVIDGSNVAMSHGNKEVFSCRGILLAVNWFLERGHTDITVFVPSWRKEQPRPDVPITDQHILRELEKKKILVFTPSRRVGGKRVVCYDDRFIVKLAYESDGIVVSNDTYRDLQGERQEWKRFIEERLLMYSFVNDKFMPPDDPLGRHGPSLDNFLRKKPLTLEHRKQPCPYGRKCTYGIKCRFFHPERPSCPQRSVADELRANALLSPPRAPSKDKNGRRPSPSSQSSSLLTESEQCSLDGKKLGAQASPGSRQEGLTQTYAPSGRSLAPSGGSGSSFGPTDWLPQTLDSLPYVSQDCLDSGIGSLESQMSELWGVRGGGPGEPGPPRAPYTGYSPYGSELPATAAFSAFGRAMGAGHFSVPADYPPAPPAFPPREYWSEPYPLPPPTSVLQEPPVQSPGAGRSPWGRAGSLAKEQASVYTKLCGVFPPHLVEAVMGRFPQLLDPQQLAAEILSYKSQHPSE [ZC3H12A],0.15,-0.0716
